Reference: patent US20240425571A1 (OHIO STATE INNOVATION FOUNDATION, published 2024)
Numbering of substitutions follows the chain as printed.

T1: human GARP (glycoprotein A repetitions predominant, LRRC32) on the cell surface (human, UniProt Q14392 20-662)
T1 construct: whole, on cells; also called hGARP; free GARP
T1 sequence (looked up): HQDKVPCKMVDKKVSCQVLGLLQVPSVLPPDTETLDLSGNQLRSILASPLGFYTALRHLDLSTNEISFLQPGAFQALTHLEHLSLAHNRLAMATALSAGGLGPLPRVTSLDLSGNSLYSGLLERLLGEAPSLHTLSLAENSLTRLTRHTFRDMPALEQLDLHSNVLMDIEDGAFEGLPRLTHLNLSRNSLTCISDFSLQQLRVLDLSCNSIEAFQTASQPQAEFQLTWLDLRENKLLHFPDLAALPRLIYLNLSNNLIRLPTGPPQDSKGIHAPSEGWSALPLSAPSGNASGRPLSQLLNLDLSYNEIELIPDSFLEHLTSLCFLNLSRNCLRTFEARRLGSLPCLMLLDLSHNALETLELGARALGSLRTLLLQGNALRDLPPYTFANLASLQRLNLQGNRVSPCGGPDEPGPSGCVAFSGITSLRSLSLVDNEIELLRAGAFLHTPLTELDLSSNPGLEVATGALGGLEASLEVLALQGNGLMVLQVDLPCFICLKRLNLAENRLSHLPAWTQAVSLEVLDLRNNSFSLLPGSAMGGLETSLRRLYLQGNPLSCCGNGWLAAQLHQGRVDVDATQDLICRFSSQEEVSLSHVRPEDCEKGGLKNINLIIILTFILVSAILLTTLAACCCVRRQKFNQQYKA

B1: 5C5 (antibody, V domains shown)
VH: EVKLVESGGGSVKPGGSLKLSCAASGFTFSNYVMSWVRQTPEKRLEWVATISSGGSYTYYPDSVKGRLTISRDNAKNTLYLQMSSLRSEDTAMYYCARGYDNGDYVMDYWGQGTSVTVSS
VL: DIVLTQSPASLAVSLGQRATISCRASESVDTYGNSFMHWYQQIPGQPPKVLIYRASNLESGIPARFSGSGSRTDFTLTINPVEAGDVATYYCQQTNEHPPTFGGGTKLEIK
notes: anti-human GARP clone; printed 5C5 on the sheets, 5c5 / m5c5 / 5C5 in the text; also called m5c5
B2: huPIIO-1VH4VL2 (antibody, V domains shown)
VH: DVQLQESGPGLVKPSQTLSLTCTVSGYSITSDYAWNWIRQFPGNKLEWMGYISYSGSTSYTPSLKSRITISRDTSKNHFFLQLSSVTAEDTATYYCAKSGGDYYGSSSYWYFDVWGQGTTVTVSS
VL: DIVLTQSPSSLAVSLGERVTMNCKSSQSLLNSRSQKNYLAWYQQKPGQPPKLLIYGASTRGSGVPDRFSGSGSGTDFTLTISSVQAEDVAVYYCQNDHSYPFTFGQGTKLEIKR
notes: Humanized IgG from Expi293, tested as culture supernatant; also called H4L2; HuPIIO-1VH4/L2
B3: huPIIO-1VH4VL3 (antibody, V domains shown)
VH: B2 VH
VL: B2 VL with L15A, N22S, Q106S
notes: Humanized IgG from Expi293, tested as culture supernatant; also called H4L3; HuPIIO-1VH4/L3

Assays:
[1] = target: T1, human GARP (glycoprotein A repetitions …); assay: flow cytometry on human Tregs (drawn table)
[2] = target: T1, human GARP (glycoprotein A repetitions …); assay: FACS, Ag(+) cells, 0 ug/ml antibody (blank)
[3] = target: T1, human GARP (glycoprotein A repetitions …); assay: FACS, Ag(+) cells, culture supernatant, 1 ug/ml
[4] = target: T1, human GARP (glycoprotein A repetitions …); assay: FACS, Ag(+) cells, culture supernatant, 5 ug/ml
[5] = target: T1, human GARP (glycoprotein A repetitions …); assay: FACS, Ag(+) cells, culture supernatant, 0.2 ug/ml
[6] = target: T1, human GARP (glycoprotein A repetitions …); assay: FACS, Ag(+) cells, supernatant heated 70 C 5 min, 1 ug/ml
[7] = target: T1, human GARP (glycoprotein A repetitions …); assay: FACS, Ag(+) cells, supernatant heated 70 C 5 min, 5 ug/ml
[8] = target: T1, human GARP (glycoprotein A repetitions …); assay: FACS, Ag(+) cells, supernatant heated 70 C 5 min, 0.2 ug/ml
[9] = target: T1, human GARP (glycoprotein A repetitions …); assay: FACS, Ag(+) cells, heated-sample series, 0 ug/ml antibody (blank)

binding result [1]	MFI [2] [MFI]	MFI [3] [MFI]	MFI [4] [MFI]	MFI [5] [MFI]	MFI [6] [MFI]	MFI [7] [MFI]	MFI [8] [MFI]	MFI [9] [MFI]	Binder
binds									B1
	9.91	24.9	26.3	22.4	25	25.1	21.7	9.91	B2
	9.91	26.3	26.7	25	25.8	27	24.2	9.91	B3
